Source: US20200354457A1 (Hoffmann-La Roche, published 2020)
Where “and” joins values, the source holds several entries; their conditions need not be identical. Identical values can stand only once.

How the values were obtained:
[1] = target: T1, soluble human Lag3-IgG1-Fc with biotinylated C-terminal Avi-tag (human, biotin on the C-terminal Avi-tag); assay: A375 MHCII competition ELISA at 3 µg/ml, biotinylated Lag3 250 ng/ml; competitor MHCII on A375 cells
T1 construct: also called LAG3-Fc-avi; biotinylated LAG3-Fc antigen

[2] = target: T2, recombinant human LAG3 Fc Chimera Protein (R&D Systems, 2319-L3) (human, UniProt P18627 23-450); assay: SPR (Biacore), aVH-Fc captured by anti-human Fc, human LAG-3 Fc chimera as analyte, 25 C
T2 construct: Bought reagent
T2 sequence (looked up): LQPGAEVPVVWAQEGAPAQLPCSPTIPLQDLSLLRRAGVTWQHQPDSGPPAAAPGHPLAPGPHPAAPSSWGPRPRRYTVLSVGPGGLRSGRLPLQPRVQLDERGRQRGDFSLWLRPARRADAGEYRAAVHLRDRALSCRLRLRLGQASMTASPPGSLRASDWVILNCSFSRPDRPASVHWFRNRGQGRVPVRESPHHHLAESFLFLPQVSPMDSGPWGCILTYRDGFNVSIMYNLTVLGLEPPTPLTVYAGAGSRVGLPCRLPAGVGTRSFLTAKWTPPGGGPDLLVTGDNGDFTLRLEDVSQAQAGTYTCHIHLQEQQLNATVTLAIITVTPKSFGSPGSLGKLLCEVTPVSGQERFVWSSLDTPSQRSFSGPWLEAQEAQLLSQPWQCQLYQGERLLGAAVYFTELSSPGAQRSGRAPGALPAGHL

[3] = target: T3, Lag3 on Lag3+ NFAT Jurkat effector cells (Promega #CS194801); assay: cell-based or functional assay
[4] = target: T4, murine LAG3-Fc antigen (R&D Systems, 3328-L3-050) (murine, UniProt Q61790 24-442); assay: ELISA using murine LAG3-Fc antigen
T4 construct: Bought reagent
T4 sequence (looked up): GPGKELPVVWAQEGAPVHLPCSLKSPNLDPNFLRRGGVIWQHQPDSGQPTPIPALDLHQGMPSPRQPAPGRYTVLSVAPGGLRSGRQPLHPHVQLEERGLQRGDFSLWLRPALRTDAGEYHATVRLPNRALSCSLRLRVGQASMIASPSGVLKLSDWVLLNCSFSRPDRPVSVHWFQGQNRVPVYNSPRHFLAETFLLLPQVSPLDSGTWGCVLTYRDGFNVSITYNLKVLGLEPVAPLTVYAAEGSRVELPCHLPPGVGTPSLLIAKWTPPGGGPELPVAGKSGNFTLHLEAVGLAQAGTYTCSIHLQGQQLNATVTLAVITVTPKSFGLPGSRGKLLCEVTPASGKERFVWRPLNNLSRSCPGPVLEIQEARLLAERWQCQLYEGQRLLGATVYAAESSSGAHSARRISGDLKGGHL

[5] = target: T3, Lag3 on Lag3+ NFAT Jurkat effector …; assay: cell-based or functional assay; remark: listed apart in the source
[6] = target: T5, cynomolgus LAG3 on transiently transfected HEK293F cells (cynomolgus); assay: flow cytometry on HEK293F cells transfected with cyno LAG3, 10 µg/ml
T5 construct: whole, on cells; also called cyno LAG3; cynomolgus Lag3-positive HEK cells

[7] = target: T6, human LAG3 on recombinant CHO cells (human, UniProt P18627 23-525); assay: cell ELISA on CHO cells expressing human LAG3;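 also: bivalent Fc-format binders titrated in threefold steps from 6 µg/mL, incubated with the cells 2 h at 4 °C, bound antibody detected by HRP-coupled anti-human IgG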
T6 construct: whole, on cells; also called Lag3 cells; recombinant CHO cells expressing Lag3
T6 sequence (looked up): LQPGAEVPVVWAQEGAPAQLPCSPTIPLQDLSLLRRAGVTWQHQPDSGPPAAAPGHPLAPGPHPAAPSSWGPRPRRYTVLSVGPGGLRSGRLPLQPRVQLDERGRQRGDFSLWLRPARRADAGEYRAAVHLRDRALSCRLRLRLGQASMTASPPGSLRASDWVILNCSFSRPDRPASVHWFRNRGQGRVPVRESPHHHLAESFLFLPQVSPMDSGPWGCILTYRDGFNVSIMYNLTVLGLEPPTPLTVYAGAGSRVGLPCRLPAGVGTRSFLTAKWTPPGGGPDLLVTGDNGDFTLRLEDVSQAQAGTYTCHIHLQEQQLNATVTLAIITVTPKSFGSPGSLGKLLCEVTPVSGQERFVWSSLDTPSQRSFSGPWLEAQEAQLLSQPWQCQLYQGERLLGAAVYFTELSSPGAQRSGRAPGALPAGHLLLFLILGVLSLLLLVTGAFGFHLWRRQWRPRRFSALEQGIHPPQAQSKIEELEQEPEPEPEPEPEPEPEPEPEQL

[8] = target: T2, recombinant human LAG3 Fc Chimera …; assay: ELISA, plate coated with human LAG3 Fc chimera
[9] = target: T1, soluble human Lag3-IgG1-Fc with …; assay: A375 MHCII competition ELISA, biotinylated Lag3 250 ng/ml; competitor MHCII on A375 cells
[10] = target: T7, Lag3 on cynomolgus PBMC/T cells (cynomolgus); assay: flow cytometry, non-activated cynomolgus PBMC, 10 µg/ml
T7 construct: whole, on cells

[11] = target: T7, Lag3 on cynomolgus PBMC/T cells; assay: flow cytometry, CD3/CD28-activated cynomolgus PBMC, 10 µg/ml

| Binder | % Inhibition [1] | koff [2] | t1/2 [2] | EC50 of restoration of the NFAT luciferase signal (NFAT Lag3 reporter assay: Lag3+ Jurkat, Raji cells, SED) [3] | binding result [4] | IC50 for near-complete reduction of luciferase activity (modified NFAT Lag3 reporter assay, Lag3+ Jurkat cells alone) [5] | LAG3 positive cells (%) [6] | Signal intensity (Geo Mean) [6] | EC50 [7] | OD max [7] | EC50 [8] | OD max [8] | IC50 [9] | Percentage of Lag3 positive cells [10] | Percentage of Lag3 positive cells [11] |
| --- | --- | --- | --- | --- | --- | --- | --- | --- | --- | --- | --- | --- | --- | --- | --- |
| bivalent 21B11 aVH-Fc (Fc fusion) EVQLVESGGGLVQPGGSLRLSCAASGFNIKDTCIGWVRRAPGKGTELVAEICQDIGYTRYADSVKGRFTISADTSKNTAYLQMNSLRAEDTAVYYCAADESVDNFKYWGQGTTVTVSSGGGGSGGGGSDKTHTCPPCPAPEAAGGPSVFLFPPKPKDTLMISRTPEVTCVVVDVSHEDPEVKFNWYVDGVEVHNAKTKPREEQYNSTYRVVSVLTVLHQDWLNGKEYKCKVSNKALGAPIEKTISKAKGQPREPQVYTLPPSRDELTKNQVSLTCLVKGFYPSDIAVEWESNGQPENNYKTTPPVLDSDGSFFLYSKLTVDKSRWQQGNVFSCSVMHEALHNHYTQKSLSLSPGK | 96.7% | 1.8e-05 s⁻¹ | 1.78 h | 0.6 µg/mL | no binding | 0.064 µg/mL | 78.9% | 2750 Geo Mean | 0.0428 µg/mL and 0.6 nM | 1.3 OD | 0.0157 µg/mL and 0.2 nM | 1.1 OD | 0.113 µg/mL and 1.5 nM |  |  |
| bivalent P10C3 aVH-Fc (Fc fusion) EVQLVESGGGLVQPGGSLRLSCAASGFNIKDTCIGWVRRAPGKGTELVAEICTDAGYTRYADSVKGRFTISADTSKNTAYLQMNSLRAEDTAVYYCAASESPSGFRYWGQGTTVTVSSGGGGSGGGGSDKTHTCPPCPAPEAAGGPSVFLFPPKPKDTLMISRTPEVTCVVVDVSHEDPEVKFNWYVDGVEVHNAKTKPREEQYNSTYRVVSVLTVLHQDWLNGKEYKCKVSNKALGAPIEKTISKAKGQPREPQVYTLPPSRDELTKNQVSLTCLVKGFYPSDIAVEWESNGQPENNYKTTPPVLDSDGSFFLYSKLTVDKSRWQQGNVFSCSVMHEALHNHYTQKSLSLSPGK | 84.9% | 8.9e-05 s⁻¹ | 2.17 h | 3.9 µg/mL | no binding |  |  |  | 0.0735 µg/mL and 1 nM | 1.2 OD | 0.123 µg/mL and 1.6 nM | 0.8 OD | 0.242 µg/mL and 3.2 nM |  |  |
| bivalent 19G3 aVH-Fc (Fc fusion) EVQLVESGGGLVQPGGSLRLSCAASGFNIKYQCIGWVRRAPGKGTELVAEICSYDGYTRYADSVKGRFTISADTSKNTAYLQMNSLRAEDTAVYYCAAEESVEGFIYWGQGTTVTVSSGGGGSGGGGSDKTHTCPPCPAPEAAGGPSVFLFPPKPKDTLMISRTPEVTCVVVDVSHEDPEVKFNWYVDGVEVHNAKTKPREEQYNSTYRVVSVLTVLHQDWLNGKEYKCKVSNKALGAPIEKTISKAKGQPREPQVYTLPPSRDELTKNQVSLTCLVKGFYPSDIAVEWESNGQPENNYKTTPPVLDSDGSFFLYSKLTVDKSRWQQGNVFSCSVMHEALHNHYTQKSLSLSPGK | 91.9% | 0.00029 s⁻¹ | 0.672 h |  | no binding |  | 80.3% | 2560 Geo Mean | 0.0636 µg/mL and 0.8 nM | 1.3 OD | 0.0342 µg/mL and 0.5 nM | 1 OD | 0.224 µg/mL and 3 nM | 17% | 54.3% |
